Assay results reported in the NTF2 design screens of Basanta et al. (2020).

Assay: protease stability score; higher = more stable; yeast display proteolysis, trypsin and chymotrypsin;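 further: log10 excess protease needed over predicted unfolded state with 0 meaning unfolded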

First: DEEARRVWHKLMDALRTGDPEKFRNNADPNARIQYGNETIHGMRDNARTVMTMLHRLDVEWEIKDVKVRPNRIDVIYVLRVHIDGKPYQVHIQADATFHNGKLQSIRKRVDEDEQRKLDR
Second: DEEASKKIKTLVQILNTGDPDKAVKLFDPNARFQVGDKEISGREQFKEVLKKLKHKMRNDIKVKHVEVNNGHANAHAVMTVQVNGQPDHFTFIMRIQWHNGVIEHREVQMDEDELRRYNS
The protease stability score of the first is higher: 0.379 for the first, 0.339 for the second.

Compared with “DEEASKQLEEYLRALQTGDSHRVQQLLDPNAKARVGDHTYHGHKEILDWLNKLNEKMRFSIERLSVSVRGDQVEFSFKFDATFNGRPFHASQTMQINVHNGRLKKLTIQLDPEQLDTQRS”, “DEEASKRFEKFQHLLRDGNEDRVQKLVDPNVKFDLGSTSLHGMEEVARTLVQRYRSIRIRQEIDTYEVKGDTVRFKQKVQWNINGQPFSDHITFEAHQTNGKFSHVVIRIDPQLLEELRK” is higher in protease stability score: -0.088 for the first, 0.503 for the second.

First: DEEATKELREWLHNRTKNNEEELHKYADPNAKFVIGDKTYHGMEEAVESQVHKDKHMNIHIESIHMDADGEHVRASEVVTFEVNGKPFRYSFRYNVTMSNGRLKSQSVRVDERDEEQEKQ
Second: DEEATKNAERLMRALNTNNEDEVLEMVDKNATMQYGDKTYHGREEISQAVDERRKEMRVHLRRVTVNAQGDKLDIKANMEVDHNGRPIKVNLRIEAKAHNGRITDIKIETDPELTRQRRT
The protease stability score of the first is lower: -0.325 for the first, 0.539 for the second.

First: DEEAVEIAHEVNKALNENDEHRLRELFDPNAKIQYGDNVIKGSDNLVKDIRRKSKRMRVRFDVKSIDNQGDKVEIDANYRQTHDGEPRTRKVDAKLRVENGRIKHFSARFTP
Second: DEEAVKKMMEEWHKALESKNDDQFRKIYKPNVEWVNGDTKRQGQEDVVKMLQKVQKDGAEFQVRDAKVEGDRARMVYDLNVGDKTATFTVEMDAEGGRVDRVQVEIDEKAKKVLTEG
The protease stability score of the first is lower: -0.044 for the first, 0.294 for the second.

First: DEEAVKRANEMVEAWEHGDESRFMKLVDPNAQVRVGDKEVHGKEDMNRSIQEESRQLRVHRRVESVESQGNEVKIDLVFTQNVNGQPIQQRVDVVITFRNGKAVDIQLDIPEDQQQQHRR
Second: DEEAVKRVEHFMKNIREGNEQKAREYADKNATIHVGDKTVHGREDLERWVRQVKEEQRMDVRSFHATADNGNVDVKVTAEIEHNGQPRHHHYTAQFNISNGKIQSVTVDDHP
The protease stability score of the first is lower: -0.131 for the first, -0.099 for the second.

Compared with “DEEAVKTLEHMFEAVRDGNPDEVKKQVDPNVKIEIGDKTYKGKDQWAQDVETKKDEMRFTYHSIEFKNEPNRVKISIDRTETHNGQPRRHHVDMEARVHNGVIVRMKAKESG”, “DEEAVNIHKTILEAEQSGDPDKFRQNVDPNVRYRYGDKEIHGREQAAERVKEKRDQARFQFDSIHIKVHGDKARAHFDFVVDHNGNPHRMSFTVVFNAHGDKLEFEIIKFDPRMKKELDS” is higher in protease stability score: -0.124 for the first, 0.198 for the second.

Going from “DEEAVNLINRLLEARKYNDPDSMKRLADENAQFVIGDKEVKGMETYARHVVQTMSRWRIDIKSVHHQSRGSKAEVDVRAKVNVNGRPDTLSITYRAHVTNGRIKELEVRFDPDQHRKLTS” to “DEEAVRHYHEMVREEETGNEDEAMKYFDPNATVRIGDKTVKGKDSIRKWVRDRRDEMRVEIHQLNVHVSNGQIDVSVDFTKEHNGRPQTMQQKVRVTATNGKIKKVNNHDDG”, the protease stability score falls from 0.019 to -0.261.

First: DEEAYRLFSEMEKARKDNDEEKLRELADEDVRFEVGDSVIKGMTRWATRVVQTAREQRFSYDIKRWHIEGDKVVVHREVRESHNGQPRSRTVVYRAHVDNGRVKSVTVEDTG
Second: DEEDADRILKLLKKNNFEELARNADPNVHVRIGDTRIHGREEVTSHMKRLTDRIDHVDWRSMSVTGDRVVVRAVYTVNGDRIDFEIEIQFHNGRVVSVRFQARDEDDKHKYRKAEK
The protease stability score of the first is lower: 0.158 for the first, 0.428 for the second.

Going from “DEEDAEDVVRKVNKILRDGDWEKFVNLMDKNAHARIGDQTYSGRSAAEDIARDVHRQVDHVEIKRVEVQGNTVHIDMVVEHNGREEKRVMDLIITNGRLRMVEYQHG” to “DEEDAEKILRTAAKAVENGDHKKLVDLGKDGVEYQLADEKAHGPEVMKKVLDYQRKLGVRVELKEVHHEGNKVVTVLVYYHGNTKLEVQIHATADGGKIDRVEVKVPETLKKQLKHG”, the protease stability score rises from -0.107 to 0.137.

Compared with “DEEDAHEQVHRIVKALETGDPDQVVNQADENVRIHVGEKTVHGQEKVREFVEEYNEQVDDVNVRHVSLDGNKATVTIDIDVNGNKRRVHFRFQFDNGRVQTIRVDTS”, “DEEDAKNAVRAVEALVTGDPDKMSKLFDKHASVEVGDKRVRGREEIRELAEQLEREMRLRVEIKHVQIQGDKVDVKFDAQRHHNGRPDDNKQTMHLTAHDGRVKNMSITSNG” is lower in protease stability score: 0.719 for the first, -0.376 for the second.

Compared with “DEEDAKRVEEMLEALRTGDWKKATDMADPDARFQIGDKRYHGMHQVAREWKNQYDQMRIEINVKEWNIHNGRVDLKFEQKNDHNGKPDNFRASATFQFHNGQLVEAQYQRDS”, “DEEDAKVLKQVLENVESGDSKSAETLLDKDVKFVIGDKVLHGRTQYVDRVRRETKRMRVKRQVQHYEVNNGRVHMTIDIQYDIDGKPLRDQITLTAEFHNGRMQSLEVKMDRDFKRKVDK” is lower in protease stability score: 0.634 for the first, 0.313 for the second.

First: DEEDANDMRHVWEVLDTGDEERFLQMVDPNVKVVIGDKEYHGRENLRKFLQDQKREMSERIKSIRVHDHNGRIKINAHATNQQNGQPHSFNIDAEAELHNGKITHLNVQTDG
Second: DEEDANNVAEQMMEIVERGDEERASELADPNAKFNIGDKKYEGRENLQKAIRHFRQRADHLEIKSLSVTPGHLKMRFVVKHNGQRNEVVIHVKAHNGKIVEIQVRNS
The protease stability score of the first is higher: 2.17 for the first, 0.15 for the second.

Compared with “DEEDANRHVREFWKNVETGNEDDLRDLADPNARLFVGDKKYRGRSEMAKAFKEIRKNVDHFELKSVQEKGDKVKVVAVWNHNGRNVEMVVIFVAHNGRIKEVQVRHK”, “DEEDAQTLQRVLNHGDPDEWVRLADENVHARVGDKTYSGREHLKTFWHKLREQVDEIEVKSVDISGDRVQADIIYVVNGKRIRVTMVAHVNNGRIKEYKIHYRNEEVRDQLREAQS” is higher in protease stability score: 0.233 for the first, 0.793 for the second.

Compared with “DEEDDARKAAEALKAFFKGDPEKFRDLADEDVQVRIGDNVYTGRTEANEAVENFKRQVDHVEFKDLNNRGNKVFADVVVRFNGEDIRVTLYAEVHNGKLKYMQVDPTAQKQLEK”, “DEEDDKEMEKAIRALLYGDPDKVKKLADPNVNIQYGDKEIQGREEVSKHVDNLRHESRMRVQTMDNDLSGDHAKFDVQYESNHNGKPDTRRVDINAKAHNGHVKHMQWNKDE” is lower in protease stability score: 0.65 for the first, -0.25 for the second.

First: DEEDDKKMAETLKRLHNTGNPDELLKHFDPDAKFQIGEKTVHGREQAQEFMKRIKDRVDHQSVDSIHAHNGQVNVQVKVEINGKTRVVDIVYHFHNGRFKQVVFDPRAIRRMKS
Second: DEEDDKKMNELLKQIQTGNDQKVERLIDPNANMHIGNQDIHGSEDVRKWIEKITKELNITFKVNHFRVKGDKIKIKVKINVKHNGQPDSDTIDLVARVENGHFTRIELHMDEKRWKKQVS
The protease stability score of the first is lower: 0.175 for the first, 1.15 for the second.

Compared with “DEEDDKRIAEDVVRQLQTGNPDQARDQADPNAEFRVGDRTIHGRDSFRRLMKETRDEVDKVQVQDFEMHNGHFSVNLVFNINGKEKLVHMSAQFKNGTIKHLSVQDQ”, “DEEDDRRTAKRFAENVMKGNQDEARKLADEDATVNVGDQHVHGREELARVMHDLRRQVDHIQLDSLEVQGNKADINVTMRVNGRHVTADITVTVHNGRVKQFSLNPEVAQEIKR” is higher in protease stability score: -0.36 for the first, -0.345 for the second.

First: DEEDEARKMMEELDKAWKTGDSERYAQLLDPNARMVIGDKEYHGRDDVRKWFHEMLRRVDHVQLHLTSIDIRNGKVDARAEVRLNHNGKDTSDTVIFRLQHDNGHIKIRSVKNK
Second: DEEDEARTMADRIRHALENGDEQKFAEQADPNASVRIGDRTWHGRRQISNRLKEERERADHVELEIKSIKLHGDRVKIDFVLEQDINGRHETTQLTMTAELHNGNVRFKMMKEK
The protease stability score of the first is higher: 0.251 for the first, -0.332 for the second.

Compared with “DEEDEDWAEKVATTGNFDEAARDADQNATVKVGDKTWHGREEVTRAMDLLEKQADHVRVSRFKVENGEVNFHVVIEFNGNEIDVTANARFRNGRLTYFSIDARSEHESKSLQKLLE”, “DEEDEERFEELLKAEEDGDEDRMNELVDENAEFHYGDTVIDGMTDYAREVVHRLNELRWHIDWDDMKQSNGRIQVRAKLVVKVNGTPNNDDVERQVQWDNGRVHQMNERFDSKKHKEMDK” is lower in protease stability score: 0.497 for the first, -0.158 for the second.

Going from “DEEDEEVVRQWLEAYKTGDPDQLKRNADPNARIQVGDKVLHGMEDAKTELKEQRDHQRFRFHMDSVSVHGNRVEITMKADVDVNGRPIHFTNSFVFTLHNGKIRHIDLQVPEELKHQMTK” to “DEEDEKHIDDVLKQGDFDEMARNADKDATVRIGEKEYRGREDVVRMLEIIHKRADEVHVDSVRVTNGRLKMDVVFDVNGVQANVILVINVHNGKIKNITLKYRNEELSRKLDKILR”, the protease stability score rises from -0.125 to 0.821.

Compared with “DEEDEQKIAKDFVRALERGDEDRVMELADPNVRIVIGDKRYEGREELKKLVRTFKKRADHAEVHSIDIRNGTVIVDYVIHHNGRNSQQYLYVSFNNGRIKSMRVQDG”, “DEEDEQKLAQTLAEVWKQNDEDQFVRLLDKDARVKVGDNEFRGREEAKRMMQELHRRVDHMEIKSVHAKNGSITATLRAEINGKEWRFILEAVYHNGQVKSVHIRDQ” is lower in protease stability score: 2.07 for the first, 1.68 for the second.

Compared with “DEEDEREVAKQAVDDLVKGNPDRASELADPNVHVEIGDKTYRGQTQMASALKDFRKNVDSVQIDDLKLHGNKADVDMRVDHNGQQQKYHVIVIVHNGRVSELKIKEK”, “DEEDERKFAEEFHKVLQTNNEEEIRKMFDPNVTAHVGDKRIHGREEVATVIARLARRADHIRLEHVEVENGRITMTLRADVDGRDVQFRVILTVRNGVVQEVQFDYTSEDQFREIQK” is higher in protease stability score: 1.48 for the first, 1.59 for the second.

Going from “DEEDERRKVQDVAKAIKKGNEKELRKLADEDAKWRVGDTDLHGMERIQKDQATRRREVDNVEIKSVDVHNGRAHVTFVVNHNGKNVEVTNTADFKNGKVKNVQVDPSKVEELKK” to “DEEDERTVKERMKKNNFDELAKNADENARATYGDKTYHGREQVRKAAKDFKDAVDRVKIDSISVHNGTVRMEFTVVINGRHFEMVLYVHVHNGKVQHMEFQATDDKIRKDLKRLQE”, the protease stability score rises from -0.328 to -0.275.

Going from “DEEDESRHAEIAIRALAQGDEEELRRQVDPNARVRIGEFNVHGREAAHKAVKTLQEEFDHVDLTHVTTRGEKARVDVKYKKNGKEVTFQLEAKVHDGKVKELQMEKG” to “DEEDFNNAQSMIKDEEQGDEEQITRNLDPNVKIRVGDKRLHGRENYAREVARKARRIRVEVHIRSVSHSGNHIRIDVEVHEQQNGKPDHSRFVVLMHYNNGTVKKAQFDDTD”, the protease stability score rises from -0.241 to 0.103.

First: DEEDHKKILQKIADVYQRGNPNQQRDLMDENARVVIGNTKFHGREQAMEAAEERRRQVDRIQLTSIDVHGNKFHIRVTLDINGKTVDIHIDVEVHNGKIKDVQVDPRAEKFFKG
Second: DEEDHQKIAHSLAEVLKTGDPDRMMELADENVKFQVGDKTYHGREELKKYMEQLHRHADHIEIDHISVQGDKIRIHARMNVNGREHTFVIQVEIHNGRAKSITFQYG
The protease stability score of the first is lower: 0.202 for the first, 1.53 for the second.

First: DEEDIAHQWQDKMRTAFKDNDPEQFTQLADEDAKMHVGDTEYHGRDTIMKTLVDEAKRADRITFNVQDFRVNGNNVVVRLEIRMQHNGKEDSKVVRLVFNQSGDDMRLRYAHDG
Second: DEEDIARQLAEDFRKVLENGDPDEMRKNADKDARLKVGDKQVHGRDEMVKYFEKLNKEYDRVHIHIKSVSAQGDKLRVEIQVVWNSNGKNDKTTYDLVFQHDDGHVKLLEIRES
The protease stability score of the first is lower: 0.338 for the first, 0.539 for the second.
